Measurements as given in patent US20160159910A1 (Genentech, published 2016).

Legend:
human B7-H4 [1] = molecular target: T1, human B7-H4 (human, UniProt Q7Z7D3 29-282); assay: Scatchard analysis, radioligand cell binding on MX-1 cells (endogenous human B7-H4)
T1 construct: On stably transfected 293 cells (recombinant) or on MX-1 / SKBR3 tumor cells (endogenous); the cell is named under assay; also called huB7-H4; hB7-H4
T1 sequence: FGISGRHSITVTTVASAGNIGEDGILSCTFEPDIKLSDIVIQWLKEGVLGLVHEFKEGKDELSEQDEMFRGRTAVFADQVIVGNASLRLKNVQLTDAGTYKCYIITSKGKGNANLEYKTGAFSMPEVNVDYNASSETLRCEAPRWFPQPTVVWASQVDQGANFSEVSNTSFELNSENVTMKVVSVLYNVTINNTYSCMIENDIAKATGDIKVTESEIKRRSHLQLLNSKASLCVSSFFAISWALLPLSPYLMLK
Method: Competition assay mixtures of 50 μL volume containing a fixed concentration of [I¹²⁵] labeled antibody and decreasing concentrations of serially diluted, unlabeled antibody were placed into 96-well plates. […] Cells were detached from the flask using Sigma Cell Dissociation Solution and were washed with binding buffer, which consisted of Dulbecco's Modified Eagle Medium (DMEM) with 1% bovine serum albumin (BSA), 300 mM human IgG and 0.1% sodium azide. The washed cells were added to the 96 well plates at a density of 100,000 cells in 0.2 mL of binding buffer. The final concentration of the [I¹²⁵] labeled antibody in each well was ˜250 pM. The final concentration of the unlabeled antibody in the competition assay ranged from 1000 nM through ten 2-fold dilution steps to a 0 nM buffer-only assay. Competition assays were carried out in triplicate. Competition assays were incubated for 2 hours at room temperature. […] The filters were counted on a Wallac Wizard 1470 gamma counter (PerkinElmer Life and Analytical Sciences Inc.; Wellesley, Mass.). The binding data was evaluated using NewLigand software (Genentech), which uses the fitting algorithm of Munson and Robard to determine the binding affinity of the antibody (Munson and Robard 1980).

human B7-H4 [2] = molecular target: T1, human B7-H4; assay: Scatchard analysis, radioligand cell binding on 293 cells expressing recombinant B7-H4
Method: (§1) Competition assay mixtures of 50 μL volume containing a fixed concentration of [I¹²⁵] labeled antibody and decreasing concentrations of serially diluted, unlabeled antibody were placed into 96-well plates. […] Cells were detached from the flask using Sigma Cell Dissociation Solution and were washed with binding buffer, which consisted of Dulbecco's Modified Eagle Medium (DMEM) with 1% bovine serum albumin (BSA), […] and 0.1% sodium azide. The washed cells were added to the 96 well plates at a density of 100,000 cells in 0.2 mL of binding buffer. The final concentration of the [I¹²⁵] labeled antibody in each well was ˜250 pM. The final concentration of the unlabeled antibody in the competition assay ranged from 1000 nM through ten 2-fold dilution steps to a 0 nM buffer-only assay. Competition assays were carried out in triplicate. Competition assays were incubated for 2 hours at room temperature. After the 2-hour incubation, the competition assays were transferred to a Millipore Multiscreen filter plate (Billerica, Mass.) and washed 4 times with binding buffer to separate the free from bound [I¹²⁵] labeled antibody. The filters were counted on a Wallac Wizard 1470 gamma counter (PerkinElmer Life and Analytical Sciences Inc.; Wellesley, Mass.). The binding data was evaluated using NewLigand software (Genentech), which uses the fitting algorithm of Munson and Robard to determine the binding affinity of the antibody (Munson and Robard 1980).

cynomolgus monkey B7-H4 = molecular target: T2, cynomolgus monkey B7-H4 (cynomolgus monkey, UniProt Q7Z7D3 29-282 (human entry)); assay: as above
T2 construct: On stably transfected 293 cells; also called cyno B7-H4; recombinant cynomolgus monkey B7-H4
T2 chain: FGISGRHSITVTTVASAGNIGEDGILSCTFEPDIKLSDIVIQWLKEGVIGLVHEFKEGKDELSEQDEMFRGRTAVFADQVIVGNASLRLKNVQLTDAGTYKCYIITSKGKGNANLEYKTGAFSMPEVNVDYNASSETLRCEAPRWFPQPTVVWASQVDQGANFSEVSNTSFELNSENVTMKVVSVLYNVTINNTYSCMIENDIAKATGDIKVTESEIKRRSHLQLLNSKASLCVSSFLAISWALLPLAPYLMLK
Method: as §1

mouse B7-H4 = molecular target: T3, mouse B7-H4 (mouse, UniProt Q7TSP5 29-283); assay: as above
T3 construct: On stably transfected 293 cells; also called muB7-H4; recombinant mouse B7-H4
T3 sequence: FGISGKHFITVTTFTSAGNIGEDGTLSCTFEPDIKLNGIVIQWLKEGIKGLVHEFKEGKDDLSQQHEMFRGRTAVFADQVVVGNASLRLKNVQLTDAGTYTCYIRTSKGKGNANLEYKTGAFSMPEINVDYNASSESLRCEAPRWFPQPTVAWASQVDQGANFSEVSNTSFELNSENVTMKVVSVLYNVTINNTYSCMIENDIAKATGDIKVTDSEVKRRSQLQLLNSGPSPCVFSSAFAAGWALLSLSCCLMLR
Method: as §1

rat B7-H4 = molecular target: T4, rat B7-H4 (rat, UniProt Q501W4 29-282); assay: as above
T4 construct: On stably transfected 293 cells; also called recombinant rat B7-H4
T4 sequence: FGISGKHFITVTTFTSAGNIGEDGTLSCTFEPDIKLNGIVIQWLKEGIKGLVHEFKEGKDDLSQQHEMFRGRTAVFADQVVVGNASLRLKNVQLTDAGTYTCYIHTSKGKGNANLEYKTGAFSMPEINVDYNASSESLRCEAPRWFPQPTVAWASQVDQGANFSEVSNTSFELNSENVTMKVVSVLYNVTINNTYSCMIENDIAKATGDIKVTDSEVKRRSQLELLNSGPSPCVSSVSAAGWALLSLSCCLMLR
Method: as §1

[3] = molecular target: T5, B7-H4 (IgV; G28-F150 including spacer S151-V157)-irrelevant (Ig-C) chimeric membrane protein (construct-88) (human, UniProt Q7Z7D3 28-157); assay: FACS on 293 cells expressing the Ig-chimera with the B7-H4 Ig-V domain
T5 construct: also called B7-H4 (Ig-V):MolX (Ig-C, TM, CD); Ig-chimera expressing the B7-H4 Ig-V domain; not shown: Ig-C, transmembrane and cytoplasmic parts of the unnamed irrelevant protein (MolX) that display the domain on the cell; N-terminal Herpes-gD tag
T5 sequence: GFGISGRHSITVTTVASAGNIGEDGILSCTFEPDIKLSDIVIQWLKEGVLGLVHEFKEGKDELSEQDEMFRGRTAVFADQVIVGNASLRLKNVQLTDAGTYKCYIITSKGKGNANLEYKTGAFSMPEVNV
From the text: Briefly, 293 cells were transiently transfected with constructs 88 & 88B using polyfect.

Kd (human B7-H4 [1]): 7.4 nM | Kd (human B7-H4 [2]): 2.9 nM | Kd (cynomolgus monkey B7-H4): 3.7 nM | Kd (mouse B7-H4): 5 nM | Kd (rat B7-H4): 2.7 nM | fold binding compared to mock transfected 293 cells [3]: ~44 fold
B1: hu1D11.v1.9 varD (antibody)
heavy: not shown
light: DIQMTQSPSSLSASVGDRVTITCKASQGFNKYVAWYQQKPGKAPKLLIYYTSTLQPGVPSRFSGSGSGRDYTLTISSLQPEDFATYYCLQYGDLLYAFGQGTKVEIKRTVAAPSVFIFPPSDEQLKSGTASVVCLLNNFYPREAKVQWKVDNALQSGNSQESVTEQDSKDSTYSLSSTLTLSKADYEKHKVYACEVTHQGLSSPVTKSFNRGEC
notes: IgG1 / kappa; also called h1D11v1.9_VarD; h1D11v1.9varD
